Experimental data as given in publication PMC9435597, “Medical contrast agents as promising tools for biomacromolecular SAXS experiments” (Acta Crystallographica. Section D, Structural Biology, 2022).

Target: the molecule itself
Experiment: SAXS; P1 in solution, 20 mM Tris pH 7.5, 150 mM NaCl, 15°C, flow mode, SWING beamline; contrast series with Gd-HPDO3A (up to 1341 mM) or iohexol (up to 618 mM); CRYSOL fits with a hexameric atomic model, linearity of I(0)^1/2, Rg

B1: protease 1 from Pyrococcus horikoshii (enzyme)
chain: MKVLFLTANEFEDVELIYPYHRLKEEGHEVYIASFERGTITGKHGYSVKVDLTFDKVNPEEFDALVLPGGRAPERVRLNEKAVSIARKMFSEGKPVASICHGPQILISAGVLRGRKGTSYPGIKDDMINAGVEWVDAEVVVDGNWVSSRVPADLYAWMREFVKLLK
notes: protease 1 (P1) from Pyrococcus horikoshii; Hexamer; also called P1; source: purified following existing protocols (Engilberge et al., 2017)
**Q.** Which “stoichiometry N” value does the source give for B1 here?
**A.** Its value is 6.
